Test [1] addresses T1, human properdin (human, UniProt P27918 28-469). As to the kind of experiment: cell-based or functional assay.
Test [2] has as its target T1, human properdin. As to the kind of experiment: Competition ELISA: properdin (50 nM) plus antibody on C3b-coated wells. In general terms: An ELISA detects its analyte on a solid surface through an enzyme-linked reagent.
The target of test [3] is T1, human properdin. As to the kind of experiment: Properdin ELISA.
Test [4] deals with T1, human properdin. As to the kind of experiment: Properdin binding assay (Fig. 27).

T1 sequence (P27918 28-469 limits assumed): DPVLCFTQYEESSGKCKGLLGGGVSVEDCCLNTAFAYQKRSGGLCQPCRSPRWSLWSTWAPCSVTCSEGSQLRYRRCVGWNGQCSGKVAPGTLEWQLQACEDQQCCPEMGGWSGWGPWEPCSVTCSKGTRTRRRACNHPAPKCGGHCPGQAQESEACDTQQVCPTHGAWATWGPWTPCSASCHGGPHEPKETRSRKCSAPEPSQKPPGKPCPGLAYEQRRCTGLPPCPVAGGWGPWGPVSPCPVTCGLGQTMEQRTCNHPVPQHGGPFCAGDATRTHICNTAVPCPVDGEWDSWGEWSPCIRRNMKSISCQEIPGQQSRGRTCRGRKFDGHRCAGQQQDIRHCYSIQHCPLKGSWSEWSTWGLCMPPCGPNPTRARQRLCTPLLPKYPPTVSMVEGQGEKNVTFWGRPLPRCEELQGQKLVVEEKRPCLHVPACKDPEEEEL

B1: NM9401-IgG (antibody, V domains shown)
VH: QVQLQQSAPELARPGASVKMSCTASGYIFTNYPIHWVKQRPGQGLEWIGFIDPGGGYDEPDERFRDRATLTADKSSSTAYMQLSSLTSEDSAIYYCARRGGGYYLDYWGQGTTLTVSS
VL: DIQMTQTTSSLSASLGDRVTISCRASQDISFFLNWYQQKPDGTVKLLIYYTSRYHSGVPSRFSGSGSGTDFSLTINNLEQEDFATYFCQHGNTLPWTFGGGTKLEIK
modifications: Biotinylated in Example 5 (site not stated).
In the case of B1, in the test with human properdin [1], the “IC50 of inhibition in erythrocyte lysis assay using rabbit erythrocytes” value was 20 to 30 nM.

B2: NM9401-Fab (Fab, V domains shown)
VH: QVQLQQSAPELARPGASVKMSCTASGYIFTNYPIHWVKQRPGQGLEWIGFIDPGGGYDEPDERFRDRATLTADKSSSTAYMQLSSLTSEDSAIYYCARRGGGYYLDYWGQGTTLTVSS
VL: DIQMTQTTSSLSASLGDRVTISCRASQDISFFLNWYQQKPDGTVKLLIYYTSRYHSGVPSRFSGSGSGTDFSLTINNLEQEDFATYFCQHGNTLPWTFGGGTKLEIK
notes: Fab fragment of the murine antibody NM9401; also called anti-properdin Fab
For orientation: IC50 means the concentration that inhibits the measured activity by half. Consider B2, for which, in the test with human properdin [2], the IC50 came to 72 nM and the “molar ratio of antibody to properdin” value is 1.2.

B3: BAP010_1 (antibody, IgG1, V domains shown)
VH: QVQLQQSAPELARPGASVKMSCTASGYIFTNYPIHWVKQRPGQGLEWIGFIDPGGGYDEPDERFRDRATLTADKSSSTAYMQLSSLTSEDSAIYYCARRGGGYYLDYWGQGTTLTVSS
VL: DIQMTQTTSSLSASLGDRVTISCRASQDISFFLNWYQQKPDGTVKLLIYYTSRYHSGVPSRFSGSGSGTDFSLTINNLEQEDFATYFCQHGNTLPWTFGGGTKLEIK
notes: Chimeric full-length IgG1/kappa carrying the variable domains of NM9401, expressed in CHO-S cells; also called chimeric anti-properdin monoclonal antibody; recombinant antibody BAP010_1
Broadly, the Kd is the free concentration of one partner at which half of the binding sites on the other are occupied at equilibrium, for simple one-to-one binding. High values mean lower affinity, low ones higher affinity. Take B3: the “IC50 of inhibition in erythrocyte lysis assay using rabbit erythrocytes” value with human properdin [1] lay in the range of 20 to 30 nM. For the same molecule, in the test with human properdin [3], the Kd was about 0.054 nM.

B4: NM9401-F(ab')2 (other)
VH: QVQLQQSAPELARPGASVKMSCTASGYIFTNYPIHWVKQRPGQGLEWIGFIDPGGGYDEPDERFRDRATLTADKSSSTAYMQLSSLTSEDSAIYYCARRGGGYYLDYWGQGTTLTVSS
VL: DIQMTQTTSSLSASLGDRVTISCRASQDISFFLNWYQQKPDGTVKLLIYYTSRYHSGVPSRFSGSGSGTDFSLTINNLEQEDFATYFCQHGNTLPWTFGGGTKLEIK
modifications: F(ab')2 has two identical arms joined by hinge disulfides. The letters give one arm's variable domains.
notes: F(ab')2 fragment of the murine antibody NM9401; also called anti-properdin F(ab')2
In the case of B4, in the test with human properdin [2], the IC50 worked out at 29 nM and the “molar ratio of antibody to properdin” value amounted to 0.5.

B5: BAP010hum03 (antibody, human IgG1, V domains shown)
VH: EVQLVQSGAEVKKPGESLRISCKGSGYIFTNYPIHWIRQSPSRGLEWLGFIDPGGGYDEPDERFRDRVTISADKSISTAYLQWSSLKASDTAMYYCARRGGGYYLDYWGQG
VL: DIQMTQSPSSLSASVGDRVTITCRASQDISFFLNWYQQKPGKAPKLLIYYTSRYHSGVPSRFSGSGSGTEFTLTISSLQSEDFAVYYCQHGNTLPWTFGQG
notes: Humanized clone; The variable domains were cloned into the mammalian expression vector used for human IgG1/kappa; also called BAP010hum03_HC
In the case of B5, in the test with human properdin [4], the binding result is reported as “binds”.

B6: BAP010hum10 (antibody, human IgG1, V domains shown)
VH: QVQLQESGPGLVKPSQTLSLTCTVSGYIFTNYPIHWVRQATGQGLEWMGFIDPGGGYDEPDERFRDRVTITADKSTSTAYMELSSLRSEDTAVYYCARRGGGYYLDYWGQG
VL: DIQMTQSPSSLSASVGDRVTITCRASQDISFFLNWYQQKPGKAPKLLIYYTSRYHSGIPPRFSGSGYGTEFTFTISSLEAEDAATYYCQHGNTLPWTFGQG
notes: Humanized clone; The variable domains were cloned into the mammalian expression vector used for human IgG1/kappa; also called BAP010hum10_HC
For the molecule B6, the binding result with human properdin [4] is listed as “binds”.

B7: BAP010hum02 (antibody, human IgG1, V domains shown)
VH: QVQLQESGPGLVKPSQTLSLTCTVSGYIFTNYPIHWVRQAPGKGLEWVSFIDPGGGYDEPDERFRDRVTISVDTSKNQFSLKLSSVTAADTAVYYCARRGGGYYLDYWGQG
VL: EIVLTQSPATLSLSPGERATLSCRASQDISFFLNWFQQRPGQSPRRLIYYTSRYHSGIPPRFSGSGYGTDFTLTINNIESEDAAYYFCQHGNTLPWTFGQG
notes: Humanized clone; The variable domains were cloned into the mammalian expression vector used for human IgG1/kappa; also called BAP010hum02_HC
Take B7: in the test with human properdin [4], the binding result is “binds”.

The values are drawn from EP2545075B1 (NovelMed Therapeutics, Inc., dated 2020).
